The data set is described as follows: protease stability score; higher = more stable; yeast display proteolysis, trypsin and chymotrypsin.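 Note: relative to predicted unfolded state with 0 unfolded-like and 1 meaning tenfold more protease.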
Sequence “DEDTKLMEEVIRLHMELLKTGNWDELLHMLDPNAKFEAEGRDKHGWHNFLREYKHFYEELGFKHSRVHHVRVQGDKLEMDLRINVGDKEFETNLEVLKVNGRWLIKFVRID” registered a protease stability score of 1.58.
The result for “EEEKEHAREIVDILWELHETGDEEIFRTLADPDVRLLIGDKKIVGREEIWRKLKEVHKHWRLKSYHTRHLHVQGEKVTIDGVINGVYDGVDTSIDVNIQIFTFNGRFRSMREHYS” reads 0.317.
“DEEKKDLERLYELLLRSMFTGDWRALEELMDPNVLLQVNGKELHGWKLMVRVMREIRIEDHEVKHIELQGDKIHMDTRTHGEFDGRTDTTKTHVLAKKVDGQWRLKHYKID” displayed a protease stability score of 0.932.
“DEDTHKLDKHVKEVLTAWETGDEEMLLRLIDPDARITIGDKEVIGMEEALKHWKEIRIKHLELTDFKLVDGQLDSKVQVHSEVNGRRFETTIRIVLHKINGKWRIRSMTFI” returned a protease stability score of 1.34.
With “DEKDEFNHKIAHQFSESLHTGDFKLLESLFDPNVRSDINGREIIGMEELVHFWEEWKRKFPNAKERYRTESIEHQGEKTISNMRVDLHQGDFHLHREWRVEIHIIDGVVKEVRIENR”, the protease stability score was found to be 1.23.
Take “DDREEELQHLMELILFLLVTGNEEIWMRMADPDVKSRISIGDKQETYHGRETVARYMIHERHFYKNIQVKFDDVQVQGDKVIVILTFHWNGREIEVIHTFIVINGKLTSWEVRFIHR”: the protease stability score worked out at 1.42.
Sequence “DENDTARKIIKTLLDIMREGDEDKLRDQMDPNVRADVGDKTVHGREHAAKFLAHIVKRADHISITLKSLHNHNGRLRMQAEVRIVHNGRTERVTLEMVFRDHNGKLLIERMKYG” registered a protease stability score of 2.36.
In the case of “SEEEEHAEELIRLELEALLTGDEEHMARNLDPNVRININGKDIVGREEVSRFLKHLRVRSIHIEIKDFRVIGNWLHVDGRVHFHGHFDGRKIDSTTQFHMILVKINGRWFIHSVKFQ” it was 2.6; in that of “TEDKEKDDEVAHLFLNAVRTGDEELFQDLVDPETRLNVNGQEIHGRENVFRHMRETWDKMGVDHVELKDRRHINGVLILHFEIRVGDKTIHVEYIIEKIDGRWILTKVHIR”, 0.569.
The sequence “SEEEIMTKLAEKILKMHWDTGDERIRKELADPHVRIDQGDFNLHGWEVLHLTLNLLGVTKFRLHILEIHDVSMQGDKIEMDIEVHMHVNGRKISFRVQVHSIKIDGKWKQHSLIIH” returned a protease stability score of 0.153.
“DEREEESERWVRLLLHYLLTGDFRRIEELVDPNARSIIGDKRHHGREIVVEWMTRYKNARVEVKDFHIQGDKLQLHVEVQIDGRTFKLDIELYKVNGKWLLRTLHVEEL” displayed a protease stability score of 1.44.
On to “SQLEVASTEALELLRFSLETGDWEFLLRLADPNTRIEINGVTFHGREDMEEIMEEKFRRFKNVKVELDVKEVHFQGDKVRIRVVEFWKVDGQEIFIDSRIVMIKVNGRWVYKELRVH”, for which the protease stability score is 0.7.
As to “SEEDEETRKFLDLLFETRHTGDEEMSRQLADPNYQEEFENHTFHGREDFSRFIKELRIHEIRITHIYAQGDKLHIDGELRGEFNGQEVRFRVELHVVKIDGRWVLKSMRVV”, the protease stability score amounted to 1.44.
In the case of “DDTKKHMEKIFRLMIEWWETGDFDRMENNADPHVRAHIGDKEIHGREEMIKLIRELIEELGIDHEETEEVRVYDGRIHVHSRLHINGKEIEVQLHSQVVDGRIESFELHVITR” it was 1.05; in that of “SKHKEQTEHVMKTWEHAMRTGDEDRVSHLLDPNVRFEVGNKEFHGREEMSRHIVEMRFTELRLRDVETQGDKVHFEGEMRGIIDGKEETNKLIVIIYKVNGRWHIRSVHVE”, 0.618.
“DETASRAAERYMKALQTGDPDEVVKQIDPNVHVRVGDKEVQGKEQFRKKQERDKKQARYHIKHVTFNVEGDKVRVDVIFRKHHNGQPRHDRMEQRMSVRGDKITHQENHKTG” registered a protease stability score of 0.172.
The sequence “HEEEEEIVRHLEKLLRDLWTGDWDDIEHNLDPNVRIEYGEKTRVGREKFVKTFFDMGMKLRHVRINEFHVVDGRLHVDTRIDGNFNGVEFRTRVEIIAVKINGKWVLHSVHIL” returned a protease stability score of 1.22.
Regarding “HKEHRDAHELLERWLRSSVTGDEDTLSELLDPNVKIEIGNKHVHGREEVSRHFSERAHRIDHVRLHVDDLYIQGEKVHVDLTLEINVGDWRQTIKVEYVVLKVNGRWRIHTIHER”, the protease stability score amounted to 0.674.
Turning to “DEDEEASKIFWEIWLHNVRTGDEHAINELVDPHVKMVYGDKTFHGMKMLERLYRELGVKHMEVRLDDERLINGVLTLDTRLIIRVDGRTIDIKTEIIALKVNGKWVVKSITYR”, the protease stability score was 1.1.
Turning to “SREEELAKKLLEIYSRSVETGDWKKLFELMDPNTRVEQGEWHFHGREEFHKLVHKFLERADVVHVEIDRIKVIGDFVHIDVVLHIHQGEFHHVVRTRLDYLKFNGRWVLQTIRIE”, the protease stability score amounted to 1.6.
In the case of “DERTKEDEKWAKLFLEWHKTGNEEAFSHFADPHTRNTINGVELIGRESLMEFSKRWIEELRFKQLHIRDFKVVNGRVHIDSELHGIINGQEISTTVKIHIDIINGQTKSVEVRIL” it was 1.17; in that of “DEERKETEEATRQDIHDFRTGDEKSFDEFFDPNVRLDINGVRVHGRELASKWFRDFFRELGVKHSEIEHREIQGEKAIVNEDVRVGDKRVEVILVYLKINGRWEITTVTLRHE”, 1.05.
In the case of “SETEKELHEFFRLWIQLFLTGDFDELKHYIDPNVRSVINGRQLIGMEEVWRWREEARIKDIEIKDVRVQGDKIEADGVLEGTINGVDRRTDTHIQLNVVNGVAKHTFIRIR” it was 1.45; in that of “DDDERDMDLALELIIRTIRTGDWELQSRLIDPHARLHIDGRDLHGMEEYVTILVEHWRRIKGVKVSITLHDRDVFDGVLHLDTEVELDFNGVRLHMKTEIISLKYNGRWFIKEIRVR”, 0.654; in that of “HEEERHREEIMERLLTAIKTGDPKITRELIDPHTRIEIGDKNLHGMEIWLKYIHTLFEKFPNLTLRIEDSHAQGEKFIIVIRLRFDGREVNLVLYYTIVNGRIKTIEIEEK”, 1.43.
On to “SEEERVLREAIKLLEHLLRTGDEKSFHELFDPDVKIEIGDKEVHGRERWVELYRTWGLENVESHVRVDDERIQGDKMEMDMQLDLRYDGRIDTTKVIILATKINGRWKLEHFEEE”, for which the protease stability score was determined as 0.028.
The result for “SEEYKRVKHMFDLWLHALITGDEDLMEELADPHVRHDINGVKNHGWETLIDREREWRIKRIDHRRSDAVNGRMHSDVHIDGIFDGKRHETDVTIHMIVVNGKFKTVEIRYH” reads 1.08.
Take “SEDETEEHKFHNILSHAWETGDEEVLERLADPHVRFFYNGKEQVGRELMVELLRELLKRLGVDRIEIEIKDVRLQGDKARWHGDNVFNGRRVHVHISLVKVNGRWRIHHLDMG”: the protease stability score worked out at 1.31.
The result for “SEEHELAESMAEEVLRSFLTGDEDTLHELFDPHVRVNYNGKVFHGREKLIKILNELRWDHTTVKRIEIRYYGDKVEVVLHVEIHFEINGQRISHRVDIIIIAEKVNGRWRVRDFIYIEK” reads 1.35; that for “SEDEHSFKMAIDLWEEVSRTGDEKDLRELIDPHVRVEYGDKHHVGWDRFIKVFHEIRFHHIKVRDHRIIGDKLHMNIEVHGEYNGQRVTIETHVVMRKIDGRWFTETMQID”, 1.22.
The result for “DEDRRHADEVLELFSEAFLTGNEEEMRKLADPHVRIDFNGRLKIGMETYKEEMDRFDHTEMRLESKHVHVFDGRVRIDGRLRIILRIGDKEIRHDHQVDILITKVDGRWIIKSMHIE” reads 2.53.
In the case of “SEEEETAYKVMEEVISAWLTGDEDLFNELADPDVRFELEFNGKKIDIIGRELVSKYWRDVIDHIRVEVVLRDYRMIDGRIETETEIYVEVGDKSHSVETRLHMEVIDGRLRTVKIKVR” it was 2.22; in that of “SEEEKRMRDVLRRMEEALKTGDWKFLKDLLDPHTRTVINGRDRHGREFVLEVFSRFGADHSDIEDEDFQGNFVILHLEMEIGDKRIRLRIYIEKINGRWIWRHVIFD”, 2.85.
As for “DEETELTERAIEESKHNMETGDEDRLIELIDPNVKVEIGDKTFHGWEELMRWWHELGIKHVHLEFHDVKHFNGRIEVDGRLHIDVNGRTILLRVELYFQKINGQWFKESIHIK”, the protease stability score came out at 1.67.
With “HERQKEMETLVELFDEEWLTGNEQTHRRLADPHMKLDVNGKTYHGWKQYNKHLQDFLKRIDHVELEIKRIRVQGEYAHSDGTLRMHYNGVTEERNVHVEINIIDGRLKSVHLKVE”, the protease stability score came out at 1.1.
On to “TDEDRELHEAAELLIESTWTGDFDFLLELLDPNVRLVINGKHDHGREDIWEVLRRLLERLGLDRVRVKIKHIDSFDGRLHLNINLNFNGRQFRYHYESYKVNGQWVVRRIEVREK”, for which the protease stability score is 1.89.
“DHMDEELKEFLRHFLEYFRTGDFDSLYKLIDPHVKSDINGQEIHGMDLQSFWHRHIRERLGVNHMHIEITEIRYINGRAEVYGKLEVNVNGKRFEHDVHMFNLKVDGKWILESLEIR” showed a protease stability score of 2.28.
In the case of “DEDEELLREFFELLVEAELTGDEKEITRFADPNVILFQGEKEFHGRDFLIRLIMEIRIHHHELERFHLDVFNGRAEIHVDNRRDGWFDGKRIHTKVDLHIHSEKIDGRWLLKNINEILR” it was 0.716.
For the sequence “HEYEEWSEIAMRLWILAERTGDERHIAHLLDPHVRYVFNGVEVIGMELITELVKRRWEQWRVHVEIEDRKFQGNFSKIEGHLRLHVGDKTEERRVEYRMDIVDGRIREISVIIE”, the protease stability score turned out to be 1.37.
The result for “DEEKDLTEKIAHEIVHNYMTGDFDRFIELADPNVRFIIGDKIYHGREQLLTVLEHWRQEWRLSHVRLDEFEIQGDKVILHTTMNIKYGDKRIDVETEIKIIIINGRIRDWTIDRR” reads 1.42; that for “KEHEEILHHLAELFFENLLTGDWRLLTELMDPSARVHIGEWRSHGREHASRVMLEEFRQLRVRDVKLTDLKVIDGRMEIDTRMRIEVDGREHIHTIHIRIYIYNGRMDEIHLEVR”, 0.125.
In the case of “HEIEEEVENAVRLISHLLLTGDEETLHDLADPEMRTIVGDKHLHGREMWSEVIRRLGVDVLVIKEIRVQGDWIHSDGVLLVNGQERDAKIHVRKVNGKWVITTFQLK” it was 1.8; in that of “EEDREHAREILRQLHHWFMTGDEEKWSKLMDPDARHHIHVGDKHSEYHGREEVIRFLRELIRHWRIDEVRIRRLHSIDGRVHSDIIVDGQVDGRHDRRDYELRVSVVDGRLKEVTIIVH”, 1.07; in that of “DHLEEDSERAKELFIKVFKTGDEHIIKEMIDPHARLDWNGQEFHGREEVTRVMHELLEEYGIKHLHVRRFKVVNGRVEIDTELRQGDYRDESIIIILKVNGKWLIHSIEFK”, 2.12.
For “DEDDELEDKFEEILRYSLHTGDWEEWRKRVDPHVKLIINGREIIGMERAAKFFIDLERKLGVDVKHHEIRHEDKQGDKLHLETRVELRQGDKVIILHMHLHLEKINGQWIIREVRFD”, the protease stability score is 1.47.
In turn, “SEKHEHAHRIMEIILRAWETGDEESLRELLDPNVRFIQGDKDVVGREEMSRVLHEFREHIRLKSIHIHDKHAINGVFHLDIRIWGNVNGRDDHIEVNYTVVIVDGKIRDLEVRIH” registered a protease stability score of 1.06.
For the sequence “DEEEEESKQVAELIITLLTTGDEERFLELADPNVRHHQGDKELHGREDLHKTVEDWGWSKVDSRLEDVEVQGEFVIVRGKMIVNGRRVDVEYIVRKVDGRWYIHMVIYH”, the protease stability score was found to be 1.07.

Source of the values: the NTF2 design screens of Basanta et al. (2020).
